Measured values from patent publication US20230279123A1.
pEC50: −log10 of the molar value.

Experiments:
IL-4Rα (on TF-1 cells) = IL-4Rα (on TF-1 cells) (UniProt P24394); test: cell-based or functional assay
[1] = target: IL-4Rα (receptor protein / antigen) (UniProt P24394); test: competition ELISA: IL-4Rα coated, biotin-IL-4 at EC80 mixed with antibody dilutions, OD450; hIgG is the control, the fitted value may be meaningless

EC50 of neutralizing IL-4-induced TF-1 cell proliferation (IL-4Rα (on TF-1 cells)) | EC50 of neutralizing IL-13-induced TF-1 cell proliferation (IL-4Rα (on TF-1 cells)) | pEC50 [1] | Substance
0.13 nM | 0.178 nM | – | dupilumab (antibody)
– | – | 8.69 | hIgG (antibody)
